Data on eight molecules can be found in patent US20230279079A1 (published 2023).

Read-outs that look alike come from different tables or passages of the source.

Assay [1] addresses T1, SARS-CoV-2 spike receptor binding domain (RBD) (SARS-CoV-2, UniProt P0DTC2 319-541). Briefly: flow.
Assay [2] has as its target SARS-CoV-2 spike extracellular domain (SARS-CoV-2, UniProt P0DTC2 14-1213). Briefly: ELISA. (An ELISA detects its analyte on a solid surface through an enzyme-linked reagent.)
Assay [3] has as its target RBD-VLP (SARS-CoV-2, UniProt P0DTC2 340-538).
The target of assay [4] is T1, SARS-CoV-2 spike receptor binding …. In words: flow. The source holds these as a separate data set.

B1: FD 5D (antibody, V domains shown)
VH: EVQLVESGGGLVQPGGSLRLSCAASGFTFSSYSMNWVRQAPGKGLEWVSYISSSSSTIYYADPVKGRFTISRDNAKNSLYLQMNSLRAEDTAVYYCASPGGITAAGTSVLFGYYGMDVWGQGTMVTVSS
VL: not shown
Usually Kd stands for the concentration at which binding is half-saturated. For the molecule B1, the Kd in assay [1] was determined as 0.93 nM; in assay [2], 0.58 nM.

B2: FI-1C (antibody, V domains shown)
VH: EVQLVESGGGLVKPGGSLRLSCAASGFTFSDYYMSWIRQAPGKGLEWVSYISSSGSTIYYADSVKGRFTISRDNAKNSLYLQMNSLRAEDTAVYYCARRSNRFLIAFDIWGQGTMVTVSS
VL: QSALTQPASVSGSPGQTITISCTGTSSDVGGYNYVSWYQQHPGKAPKLMIYEVSNRPSGVSNRFSGSKSGNTASLTISGLQAEDEADYYCSSYTSSSTLVVFGGGTKLTVP
The term IC50 denotes the concentration that inhibits the measured activity by half. Lower therefore signals higher potency. Consider B2, for which the IC50 in assay [3] was 23 nM. That is a double-digit nanomolar value.

B3: FI 1C (antibody, V domains shown)
VH: B2 VH
VL: B2 VL
On to B3, for which the Kd is 12.2 nM in assay [4] and 1.18 nM in assay [2].

B4: FJ 10B (antibody, V domains shown)
VH: QVQLVQSGAEVKKPGESLRISCKGSGYSFTSYWISWVRQMPGKGLEWMGRIDPSDSYTNYSPSFQGHVTISADKSISTAYLQWSSLKASDTAMYYCARLDPRYGPDYYGMDVWGQGTTVTVSS
VL: AIRMTQSPSSLSASVGDRVTITCRASQSISSYLNWYQQKPGKAPKLLIHAASSLQSGVPSRFSGSGSGTDFTLTMSSLQPEDFATYYCQQSYSTPLTFGGGTKVEIR
Turning to B4, the dissociation constant (Kd) turned out to be 3.73 nM in assay [1] and 7.57 nM in assay [2].

B5: EZ 7A (antibody, V domains shown)
VH: EVQLVESGAEVKKPGESLKISCKGSGYSFTSYWIGWVRQMPGKGLEWMGIIYPGDSDTRYSPSFQGQVTISADKSISTAYLQWSSLKASDTAMYYCARGWVYRGFPYYGMDVWGQGTMVTVSS
VL: QSALTQPRSVSGSPGQSVTISCTGTSSDVGGYNYVSWYQQHPGKAPKLMIYDVSKRPSGVPDRFSGSKSGNTASLTISGLQAEDEADYYCCSYAGSYTLVFGGGTKLTVL
In the case of B5, the Kd in assay [1] is 11.4 nM; in assay [2], 1.08 nM.

B6: FI 3A (antibody, V domains shown)
VH: EVQLLESGGGLIQPGGSLRLSCAASGFTVSSNYMSWVRQAPGKGLEWVSVIYSGGSTYYADSVKGRFTISRDNSKNTLYLQMNSLRAEDTAVYYCARDHVRPGMNIWGQGTMVTVSS
VL: not shown
For the molecule B6, the values for the Kd in assay [1] and in assay [2] were 3.83 nM and 6.61 nM, respectively.

B7: FI-3A (antibody, V domains shown)
VH: B6 VH
VL: not shown
As to B7, the IC50 in assay [3] was found to be 3 nM.

B8: FD 11A (antibody, V domains shown)
VH: EVQLVESGGGVVQPGRSLRLSCAASGFTFSSYGMHWVRQAPGKGLEWVAVIWYDGSNKYYADSVKGRFTISRDNSKNTLYLQMNSLRAEDTAVYYCAKGPDILTGYYNYYYYGMDVWGQGTMVTVSS
VL: QSVLTQPPSVSGAPGQRVTISCTGSSSNIGAGYDVHWYQQLPGTAPKLLIYGNSNRPSGVPDRFSGSKSGTSASLAITGLQAEDEADYYCQSYDSSLSGFYVVFGGGTKLTVL
With B8, the Kd in assay [4] stood at 0.75 nM; in assay [2] it was 0.4 nM.
